Target: T1, CD7 on human peripheral blood T lymphocytes (human, UniProt P09564 26-240)
T1 construct: whole, on cells
T1 sequence (looked up): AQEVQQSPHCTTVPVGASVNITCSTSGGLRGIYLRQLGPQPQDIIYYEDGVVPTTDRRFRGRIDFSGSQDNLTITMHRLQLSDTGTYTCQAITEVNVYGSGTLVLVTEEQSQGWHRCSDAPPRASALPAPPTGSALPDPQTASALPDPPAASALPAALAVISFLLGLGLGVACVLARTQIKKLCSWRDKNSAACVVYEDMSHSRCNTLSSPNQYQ
Experiment: pull-down with galectin-2 coated tosyl-activated magnetic beads on PBT, immunoblot for CD7

B1: galectin-2 (ligand, UniProt P05162 1-132, looked up)
chain: MTGELEVKNMDMKPGSTLKITGSIADGTDGFVINLGQGTDKLNLHFNPRFSESTIVCNSLDGSNWGQEQREDHLCFSPGSEVKFTVTFESDKFKVKLPDGHELTFPNRLGHSHLSYLSVRGGFNMSSFKLKE
modifications: biotin-labelled (sites not given) in the flow cytometry assays; coupled to tosyl-activated magnetic beads in the co-immunoprecipitation
notes: also called Gal-2; biotin-labelled galectin-2
B1: no binding.
